# In IntAct's records for PubMed 22981988:
# B1: Arfaptin-1 (Homo sapiens), P53367 (parent)
# chain: MAQESPKNSAAEIPVTSNGEVDDSREHSFNRDLKHSLPSGLGLSETQITSHGFDNTKEGVIEAGAFQGSPAPPLPSVMSPSRVAASRLAQQGSDLIVPAGGQRTQTKSGPVILADEIKNPAMEKLELVRKWSLNTYKCTRQIISEKLGRGSRTVDLELEAQIDILRDNKKKYENILKLAQTLSTQLFQMVHTQRQLGDAFADLSLKSLELHEEFGYNADTQKLLAKNGETLLGAINFFIASVNTLVNKTIEDTLMTVKQYESARIEYDAYRTDLEELNLGPRDANTLPKIEQSQHLFQAHKEKYDKMRNDVSVKLKFLEENKVKVLHNQLVLFHNAIAAYFAGNQKQLEQTLKQFHIKLKTPGVDAPSWLEEQ
# partner: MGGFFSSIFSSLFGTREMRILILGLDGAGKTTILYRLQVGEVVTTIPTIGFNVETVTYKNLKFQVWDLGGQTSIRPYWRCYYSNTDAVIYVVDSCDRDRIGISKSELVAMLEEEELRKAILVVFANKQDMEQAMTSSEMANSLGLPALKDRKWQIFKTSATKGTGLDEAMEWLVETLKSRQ
# B2: Arfaptin-1 (Homo sapiens), P53367 (parent)
# chain: B1 chain
# Variants of: B1
# Details: with arl1_human ARL1, P40616
row,effect of a mutation on the interaction,Variant
1,disrupting interaction strength,S132D
2,with no effect,S132A

# Variants of: B2
# Details: with arf1_human ARF1, P84077
# Sequence of arf1_human ARF1, P84077 (P84077 whole entry): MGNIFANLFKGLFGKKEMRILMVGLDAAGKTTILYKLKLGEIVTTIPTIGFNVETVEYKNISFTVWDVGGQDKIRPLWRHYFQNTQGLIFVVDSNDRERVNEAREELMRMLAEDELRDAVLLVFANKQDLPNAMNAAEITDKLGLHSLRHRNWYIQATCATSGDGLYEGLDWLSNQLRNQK
row,effect of a mutation on the interaction,Variant
1,with no effect,S132A

# Variants of: B2
# Details: with arf3_human ARF3, P61204
# Sequence of arf3_human ARF3, P61204 (P61204 whole entry): as the sequence (P84077 whole entry) above, with A6G, F9L, G11S, F13I, S174A, R178K, Q180K counted along it
row,effect of a mutation on the interaction,Variant
1,with no effect,S132A
2,disrupting interaction strength,S132D

# Variants of: B2
# Details: with arf1_human ARF1, P84077
# Remark: another data set of the same source
row,effect of a mutation on the interaction,Variant
1,disrupting interaction strength,S132D
